The record followed here is patent US20230138930A1 (FUDAN UNIVERSITY, published 2023).

Test [1] deals with T1, human TF on cells (MDA-MB-231, BxPC-3 and other tumor cells with high TF expression) (human, UniProt P13726 33-295).
T1 construct: whole, on cells; Endogenous expression on tumor cell lines; also called cell surface TF
The experiment in a line: flow cytometry on MDA-MB-231 cells, antibody at 1 µg/mL. On the technique in general: A flow cytometer gives signals particle by particle.

The target in test [2] is T1, human TF on cells (MDA-MB-231, BxPC-3 …). The experiment in a line: flow cytometry on MDA-MB-231 cells, antibody at 10 µg/mL.

Changes are numbered by the printed parent chain.

B1: TF-mAb-H42 (antibody, V domains shown)
VH: QVQLVQSGAEVKKPGASVKVSCKASGYSFISYWMNWVRQAPGQGLEWIGMIYPADSETRLNQKFKDRATLTVDKSTSTAYMELSSLRSEDTAVYYCAREDYGSSDYWGQGTTVTVSS
VL: DIQLTQSPSSLSASVGDRVTITCSASSSVSYMNWYQQKPGKSPKIWIYGISNLASGVPSRFSGSGSGTDFTLTISSLQPEDFATYYCQQKSSFPWTFGGGTKVEIK
For B1, the figures for the MFI in test [1] and in test [2] were 2970 MFI and 3350 MFI, respectively.

B2: TF-mAb-H47 (antibody, V domains shown)
VH: B1 VH
VL: EIVLTQSPDFQSVTPKEKVTITCSASSSVSYMNWYQQKPDQSPKIWIYGISNLASGVPSRFSGSGSGTDFTLTINSLEAEDAATYYCQQKSSFPWTFGGGTKVEIK
For B2, the MFI stood at 3000 MFI in test [1] and 3150 MFI in test [2].

B3: TF-mAb-H43 (antibody, V domains shown)
VH: QVQLVQSGSELKKPGASVKVSCKASGYSFISYWMNWVRQAPGQGLEWIGMIYPADSETRLNQKFKDRAVLSVDKSVSTAYLQICSLKAEDTAVYYCAREDYGSSDYWGQGTTVTVSS
VL: B1 VL
B3: the MFI in test [1] amounted to 2820 MFI; in test [2], 3300 MFI.

B4: TF-mAb-H48 (antibody, V domains shown)
VH: B3 VH
VL: B2 VL
Regarding B4, the MFI in test [1] is 2610 MFI; in test [2], 2900 MFI.

B5: TF-mAb-H30 (antibody, V domains shown)
VH: EVQLVQSGAEVKKPGESLKISCKGSGYSFTSYWMNWVRQMPGKGLEWMGMIYPADSETRLNQKFKDKATLSVDKSISTAYLQWSSLKASDTAMYYCAREDYGSSDYWGQGTTVTVSS
VL: EIVLTQSPATLSLSPGERATLSCSASSSVSYMNWYQQKPGQAPRIWIYGISNLASGIPARFSGSGSGTDFTLTISSLEPEDFAVYYCQQKSSFPWTFGGGTKVEIK
As for B5, the MFI in test [1] was 2930 MFI; in test [2] it was 3240 MFI.

B6: TF-mAb-H40 (antibody, V domains shown)
VH: B5 VH
VL: B1 VL
For the molecule B6, the MFI in test [1] was determined as 3180 MFI; in test [2] it was 3310 MFI.

B7: TF-mAb-H45 (antibody, V domains shown)
VH: B5 VH
VL: B2 VL
For B7, the MFI was 3100 MFI in test [1] and 3480 MFI in test [2].

B8: TF-mAb-H38 (antibody, V domains shown)
VH: B3 VH
VL: B5 VL with A42S, I57V
With B8, the MFI in test [1] amounted to 2870 MFI; in test [2], 3150 MFI.

B9: TF-mAb-H32 (antibody, V domains shown)
VH: B1 VH
VL: B5 VL
B9: the MFI came to 2400 MFI in test [1] and 3010 MFI in test [2].

B10: TF-mAb-H35 (antibody, V domains shown)
VH: B5 VH
VL: B5 VL with A42S, I57V
With B10, the MFI in test [1] is 2930 MFI; in test [2], 3020 MFI.

B11: TF-mAb-H33 (antibody, V domains shown)
VH: B3 VH
VL: B5 VL
With B11, the MFI turned out to be 2420 MFI in test [1] and 2840 MFI in test [2].

B12: TF-mAb-H34 (antibody, V domains shown)
VH: B5 VH with K67Q
VL: B5 VL with A42S, I57V
As to B12, the values for the MFI in test [1] and in test [2] were 2460 MFI and 3270 MFI, respectively.

B13: TF-mAb-H46 (antibody, V domains shown)
VH: B5 VH with R38K
VL: B2 VL
Take B13: the MFI in test [1] came out at 3120 MFI; in test [2], 3410 MFI.

B14: TF-mAb-H41 (antibody, V domains shown)
VH: B5 VH with R38K
VL: B1 VL
On to B14, for which the MFI in test [1] was 3000 MFI; in test [2], 3610 MFI.

B15: TF-mAb-H37 (antibody, V domains shown)
VH: B1 VH
VL: B5 VL with A42S, I57V
As to B15, the MFI turned out to be 2460 MFI in test [1] and 2990 MFI in test [2].

B16: TF-mAb-H44 (antibody, V domains shown)
VH: B5 VH with K67Q
VL: B2 VL
On to B16, for which the MFI in test [1] was 3200 MFI; in test [2] it was 3430 MFI.

B17: TF-mAb-H29 (antibody, V domains shown)
VH: B5 VH with K67Q
VL: B5 VL
Take B17: the MFI is 2960 MFI in test [1] and 3580 MFI in test [2].

B18: TF-mAb-H36 (antibody, V domains shown)
VH: B5 VH with R38K
VL: B5 VL with A42S, I57V
As to B18, the MFI in test [1] amounted to 3040 MFI; in test [2], 3090 MFI.

B19: TF-mAb-H39 (antibody, V domains shown)
VH: B5 VH with K67Q
VL: B1 VL
Take B19: the MFI worked out at 3180 MFI in test [1] and 3380 MFI in test [2].

B20: TF-mAb-H31 (antibody, V domains shown)
VH: B5 VH with R38K
VL: B5 VL
Consider B20, for which the MFI was 3080 MFI in test [1] and 3470 MFI in test [2].

B21: TF-mAb-Ch (antibody, V domains shown)
VH: QVQLQQPGAELVRPGASVKLSCKASGYSFISYWMNWVKQRPGQGLEWIGMIYPADSETRLNQKFKDKATLTVDKSSSTAYMQLSSPTSEDSAVYYCAREDYGSSDYWGQGTTLTVSS
VL: EILLTQSPAIIAASPGEKVTITCSASSSVSYMNWYLQKPGSSPKIWIYGISNLASGVPARFSGSGSGTSFSFTINSMETEDVATYYCQQKSSFPWTFGGGTKLEIK
notes: Variable regions of TF-mAb-SC1 cloned onto human IgG1 heavy chain constant region and human kappa constant region; also called human-mouse chimeric antibody
Consider B21, for which the values for the MFI in test [1] and in test [2] were 3370 MFI and 3540 MFI, respectively.
